Broadly, the stoichiometry N is a count of units in the complex or per binding partner.

The target in this assay is recombinant prefusion F protein of RSV (rpF5), ectodomain fused with a T4 fibritin foldon trimerization domain (respiratory syncytial virus, subgroup A2 | bacteriophage T4) (UniProt P03420). Nature of the assay: SDS-PAGE under reducing and non-reducing conditions; 10% gel, Coomassie blue staining; band of approximately 195 kDa under non-reducing and approximately 65 kDa under reducing conditions.

For the substance “recombinant prefusion F protein of RSV (rpF5), ectodomain fused with a T4 fibritin foldon trimerization domain (from UniProt P03420 26-513) (domain or fragment)”, the stoichiometry N worked out at 3.
